The target of test [1] is Monoclonal antibody 3E7. The experiment in a line: solution RIA, displacement of [125I]b-endorphin from mAb 3E7. A general note: Loss of bound radioactivity is the signal in a displacement assay; it reports binding, not function.
In test [2] the target is 3E7 antibody. Description: Solution radioimmunoassay, inhibition of [125I]b-endorphin binding to mAb 3E7. As to conditions: for IC50: geometric mean, 30 pM [125I]b-endorphin, 20% tracer bound, 18 hr. incubation, 0.25 μg/ml 3E7; for Affinity Relative to YGGFL (SEQ ID NO: 125): relative to YGGFL = 1. The method, then: The peptides were synthesized according to well known protocols, as described in, for example, Merrifield, Science 232:341-347 (1986), incorporated by reference herein. A solution radioimmunoassay was used to estimate the binding affinities of peptides for mAb 3E7. Solution radioimmunoassay using [^125I]b-endorphin (20,000 cpm) and purified 3E7 antibody (0.25 μg/ml) was conducted as described by Meo et al., supra, with the exception that the final volume was 150 μl. Antibody-bound and free [^125I]b-endorphin were separated by addition of activated charcoal followed by centrifugation, as described in Ghazarassian et al., Life Sciences 27:75-86 (1980). Antibody-bound [^125I]b-endorphin in the supernatant was measured in a gamma counter. […] J. Physiol. 235:E97-E102 (1978).

Test [3] relates to Monoclonal antibody 3E7. As to conditions: Meo et al., Herz et al., Gramsch et al.; cited from earlier work.
Test [4] addresses Monoclonal antibody 3E7. Description: solution RIA, 30 pM tracer, 18 hr incubation.
Test [5] deals with Monoclonal antibody 3E7. The experiment in a line: binding experiments with mAb 3E7 and [3H]YGGFL, room temperature.

Where no end group is shown, it is not given here.

Take GGF (peptide): the Affinity Relative to YGGFL in test [1] is less than 7.1e-06.

In general, IC50 refers to the midpoint of a concentration-inhibition curve. Read a low IC50 as greater potency in that assay. With YGNWTY [YGNWTY], in test [2], the IC50 came out at 7800 nM and the “Affinity Relative to YGGFL (SEQ ID NO: 125)” value worked out at 0.00091.

As to “YGGFL [Tyr-Gly-Gly-Phe-Leu, reference compound]”, in test [2], the half-inhibitory concentration (IC50) is 7.1 nM and the “Affinity Relative to YGGFL (SEQ ID NO: 125)” value was 1. Moreover, in test [3], the “binding to antibody 3E7” value is reported as “binds tightly”.

For the molecule “YGGFM: met-enkephalin, natural opioid peptide”, in test [3], the “binding to antibody 3E7” value is recorded as “binds tightly”.

Take YAGFAQ [YAGFAQ]: in test [2], the IC50 worked out at 8300 nM and the “Affinity Relative to YGGFL (SEQ ID NO: 125)” value worked out at 0.00086.

Turning to GFL (peptide), in test [1], the Affinity Relative to YGGFL was less than 7.1e-06.

YGGWAG [YGGWAG]: in test [2], the IC50 was found to be 7800 nM and the “Affinity Relative to YGGFL (SEQ ID NO: 125)” value amounted to 0.00091.

With YGFWGM [YGFWGM], in test [2], the IC50 amounted to 350 nM and the “Affinity Relative to YGGFL (SEQ ID NO: 125)” value was found to be 0.020.

Take “[125I-tyr28]b-endorphin (from UniProt P01189 237-267) (peptide)”: the tracer bound in test [4] is 20%.

For the molecule YGGFPD [YGGFPD], in test [2], the half-maximal inhibitory concentration (IC50) came to 2300 nM and the “Affinity Relative to YGGFL (SEQ ID NO: 125)” value came out at 0.0031.

Regarding YGPFWS [YGPFWS], in test [2], the IC50 was 1900 nM and the “Affinity Relative to YGGFL (SEQ ID NO: 125)” value is recorded as 0.0037.

“YGGF [Tyr-Gly-Gly-Phe, reference compound]”: in test [2], the IC50 worked out at 190 nM and the “Affinity Relative to YGGFL (SEQ ID NO: 125)” value was 0.037.

As for YGG (peptide), the Affinity Relative to YGGFL in test [1] was less than 7.1e-06.

In test [1], YGGFL came in with an Affinity Relative to YGGFL of 1 and a concentration for half-maximal inhibition (IC50) of 7.1 nM. In addition, the dissociation t1/2 in test [5] was determined as 45 s.

YGGWAG: in test [1], the Affinity Relative to YGGFL amounted to 0.00091 and the concentration for half-maximal inhibition (IC50) was 7800 nM.

With YGNWTY, in test [1], the Affinity Relative to YGGFL came out at 0.00091 and the IC50 is 7800 nM.

In test [1], YGGF had an Affinity Relative to YGGFL of 0.037 and an IC50 of 190 nM.

Regarding GGFL, the Affinity Relative to YGGFL in test [1] is less than 7.1e-06.

For the molecule YGPFWS, in test [1], the Affinity Relative to YGGFL worked out at 0.0037 and the IC50 was 1900 nM.

In test [1], YGFWGM came in with an Affinity Relative to YGGFL of 0.02 and an IC50 of 350 nM.

Regarding YAGFAQ, in test [1], the Affinity Relative to YGGFL turned out to be 0.00086 and the IC50 worked out at 8300 nM.

Turning to YGGFPD, in test [1], the Affinity Relative to YGGFL worked out at 0.0031 and the half-inhibitory concentration (IC50) is 2300 nM.
